In patent publication EP2100620A1 one finds IC50 data, which are given here for two molecules.

Test [1] addresses HLA receptor A11 (HLA-A*1101), purified from transfected human cells (human). As to the kind of experiment: competitive binding assay: unlabeled test peptide against 5 nM 125I-labeled standard peptide on purified HLA with 1 uM b2m, size exclusion HPLC, 68 h incubation. In general terms: In gel filtration, larger molecules generally elute earlier.
Test [2] addresses HLA receptor A1 (HLA-A*0101), purified from transfected human cells (human). The test can be described thus: competitive binding assay: unlabeled test peptide against 5 nM 125I-labeled standard peptide on purified HLA with 1 uM b2m, size exclusion HPLC, 51 h incubation. As to conditions: remark: other sources report otherwise.

B1: … (SEQ ID NO:122), HPV strain 18 E7 59-67 (peptide)
peptide: HTMLCMCCK
modifications: not checked
The molecule B1 registered an IC50 in test [1] of 67 nM.

B2: … (SEQ ID NO:70), HPV 16 E6 peptide (peptide)
peptide: ISEYRHYCY
modifications: not checked
In test [2], B2 had a half-maximal inhibitory concentration (IC50) of 49 nM.

Broadly, the IC50 is the concentration at which inhibition is half-maximal.
